In one series the test system is hDlg. The note with it: in vitro degradation assay; cited from earlier work. From the text: One PDZ domain containing protein targeted by E6 for degradation in vivo is the multi-domain protein hDlg (human Dlg/hDlg1/SAP-97). […] Human Dlg is part of the Scribble polarity complex that controls basolateral polarity and it is required for adherens junction formation and differentiation of epithelial cells. Human Dlg is expressed in human keratinocytes and localizes to nuclear, cytoplasmic, membrane-associate ...

Series [1] deals with T1, hDlgPDZ2 (Homo sapiens, UniProt Q12959).
T1 construct: host or cells: E. coli BL21 (DE3)
The note with it: cited from earlier work. From the text:
51Z2 contains a carboxy-terminal PDZ-BM and the full-length protein causes the degradation of hDlg in vitro [32].

Series [2] is classed as physicochemical. The note with it: N-terminal His6-tag, E. coli BL21(DE3), 20 °C overnight expression with 10 µM Zn2+; cell extract in lysis buffer pH 7.3; centrifugation 10,000 x g, 4 °C, 30 min; Coomassie stained SDS-PAGE. As for the experimental part: Assessment of solubility of amino-terminally His6-tagged, recombinant E6 constructs derived from the high-risk types 16, 18, 26, 31, 45, 51, 59 and 97 as well as for the non-tumorigenic cutaneous type 1a was performed after bacterial expression in presence of 10 µM of Zn^2+ as solubility of E6 constructs is dependent on low µM concentrations of zinc. None of the wild-type sequence full-length E6 constructs nor their respective N-terminal zinc-binding domain (ZBD) turned out to be soluble (Table S1). […] The soluble constructs are denoted as E6Z2 (e.g. 51Z2 stands for the second, i.e. C-terminal, ZBD of HPV 51 E6). […]

For series [3], the target named is T1, hDlgPDZ2. As to the kind of experiment: Surface plasmon resonance (SPR) of hDlgPDZ2 with E6-derived peptides. The note with it: for kon: read-out: ka. Type of series: binding. As for the experimental part: Figure 5 51Z2 derived E6CT6 peptide versus E6CT11 peptide binding to hDlgPDZ2. SPR data. A E6CT6, B E6CT11. Sensorgrams of E6CT6 and E6CT11 binding injected in triplicate (black lines) are shown overlaid with the best fit derived from a 1∶1 interaction model including a mass transport term (orange lines). Peptide concentrations of 3.125, 6.25, 12.5, 25, 50, 100 and 200 µM are shown. The binding parameters were obtained by kinetic analysis of association and dissociation phases (left panels) or by steady state analysis (right panels) utilizing signals of plateaus depicted in the corresponding left panel.
A detailed description of methods is provided in Text S1. Briefly, recombinant proteins were generated in E. coli BL21 (DE3). Cells were disrupted and protein solubility in cell-lysates was assessed. Soluble proteins were FPLC-purified and initially characterized by CD spectroscopy, dynamic light scattering, gel filtration chromatography and NMR spectroscopy. The affinity of E6-derived peptides to hDlgPDZ2 was elucidated utilizing Surface Plasmon Resonance. hDlgPDZ2 was generated by bacterial expression and FPLC purification. The generation of the labeled E6CT11 peptide was performed as previously described. The purified, monomeric 51Z2 and the purified, monomeric hDlgPDZ2 in complex with purified E6CT11 were subsequently structurally characterized by standard solution state NMR techniques.
[1H-‐15N]-‐HSQC-‐spectra
On the technique in general: In SPR one partner is held on a chip, and binding of the other changes the refractive index at the surface.

Series [4] has as its target T2, second PDZ domain of human Dlg (hDlg/hDlg1/SAP-97) (human, UniProt Q12959 318-406, 15N labelled in the titrations with the peptides).
T2 chain: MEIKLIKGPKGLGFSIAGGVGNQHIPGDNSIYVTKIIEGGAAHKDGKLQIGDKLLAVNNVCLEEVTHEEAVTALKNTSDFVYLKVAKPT
The experiment in a line: SPR; kinetic analysis.

Series [5] addresses T3, second PDZ domain of human Dlg (hDlg/hDlg1/SAP-97) (human, UniProt Q12959 318-406, 15N labelled in the titrations with the peptides).
T3 construct: also called hDlgPDZ2; PDZ domain 2 of hDlg; source: bacterial expression, FPLC purification
As to the kind of experiment: SPR; peptides injected in triplicate at 3.125, 6.25, 12.5, 25, 50, 100 and 200 µM; kinetic analysis (1:1 interaction model with a mass transport term) and steady state analysis. The note with it: both partners purified.

Series [6] deals with T3, second PDZ domain of human Dlg …. The experiment in a line: NMR titration; [1H,15N]-HSQC of 100 µM 15N labeled 51Z2 without or with 3 fold excess of unlabeled hDlgPDZ2; slow exchange on the NMR time scale. The note with it: both partners purified.
The mark [7] stands for this setting: kinetic analysis, 1:1 interaction model including mass transport term, 25 °C, pH 7.4.
Setting [8] is: kinetic analysis, 1:1 interaction model including mass transport term, Biacore 2000, 25 °C, His6-tagged hDlgPDZ2 on NTA chip, peptide 3.125-200 µM, 150 mM NaCl, 10 mM HEPES, 3 mM EDTA, 0.005% polysorbate 20, pH 7.4, injected in triplicate, read-out: KD (kinetic analysis).

We go through 11 molecules from PMC3640046, “Structural Insights into a Wildtype Domain of the Oncoprotein E6 and Its Interaction with a PDZ Domain” (PLoS ONE, 2013).

Read-outs that look alike come from different tables or passages of the source. Residues, ends and D or L forms follow the SMILES beside them. No end group written: not given here.

For the molecule “HPV 18 E6: E6 oncoprotein of high-risk HPV 18”, the “E6 dependent reduction of hDlg levels” value in the series on hDlg is “reduction of hDlg levels”. The “interaction with hDlgPDZ2” value with hDlgPDZ2 [1] is “interact with hDlgPDZ2”.

As to “18 E6FL: full-length HPV 18 E6, His6-tagged”, in series [2], the “solubility of recombinant E6 construct” value is recorded as “Insoluble”.

The Kd is the equilibrium constant for the complex coming apart. In the case of `CC(=O)N[C@@H](CCCNC(=N)N)C(=O)N[C@@H](CC(N)=O)C(=O)N[C@@H](CCC(=O)O)C(=O)N[C@H](C(=O)N[C@@H](CCC(N)=O)C(=O)N[C@H](C(=O)O)C(C)C)[C@@H](C)O` [E6CT6, Ac-RNETQV] (Ac-RNETQV-OH), the kon on hDlgPDZ2 [3] (setting [7]) was 54000 M⁻¹ s⁻¹. Besides, the Kd on hDlgPDZ2 [3] (setting [8]) is 28.42 ± 0.05 µM.

Consider `CC(=O)N[C@@H](CCC(N)=O)C(=O)N[C@@H](CCCNC(=N)N)C(=O)N[C@H](C(=O)N[C@@H](CCCNC(=N)N)C(=O)N[C@@H](CCC(N)=O)C(=O)N[C@@H](CCCNC(=N)N)C(=O)N[C@@H](CC(N)=O)C(=O)N[C@@H](CCC(=O)O)C(=O)N[C@H](C(=O)N[C@@H](CCC(N)=O)C(=O)N[C@H](C(=O)O)C(C)C)[C@@H](C)O)[C@@H](C)O` [E6CT11, Ac-QRTRQRNETQV] (Ac-QRTRQRNETQV-OH), for which the dissociation constant Kd was less than 10 µM at hDlgPDZ2 [3] (SPR, 25 °C, pH 7.4, read-out: Kd); 9.79 ± 0.03 µM at hDlgPDZ2 [3] (setting [8]); 9.63 ± 0.02 µM at hDlgPDZ2 [3] (steady state analysis utilizing signals of plateaus, Biacore 2000, 25 °C, His6-tagged hDlgPDZ2 on NTA chip, peptide 3.125-200 µM, 150 mM NaCl, 10 mM HEPES, 3 mM EDTA, 0.005% polysorbate 20, pH 7.4, injected in triplicate, read-out: KD (steady state analysis)). Also, on hDlgPDZ2 [3] (setting [7]), the kon stood at 104000 M⁻¹ s⁻¹.

B1: 31 (co) E6FL: full-length HPV 31 E6, His6-tagged (protein, UniProt P17386 1-149, looked up)
chain: MFKNPAERPRKLHELSSALEIPYDELRLNCVYCKGQLTETEVLDFAFTDLTIVYRDDTPHGVCTKCLRFYSKVSEFRWYRYSVYGTTLEKLTNKGICDLLIRCITCQRPLCPEEKQRHLDKKKRFHNIGGRWTGRCIACWRRPRTETQV
modifications: full-length His6 tag
notes: full-length HPV 31 E6, His6-tagged
For the molecule B1, the “solubility of recombinant E6 construct” value in series [2] is recorded as “Insoluble”.

Usually koff stands for the first-order rate constant of dissociation. A lower koff goes with a long-lived complex. As to Ac-RNETQV (also called E6CT6 peptide) [E6CT6, N-terminally truncated 6mer peptide of the HPV 51 E6 C-terminus (Ac-RNETQV)], the koff in series [4] came to 1.53 s⁻¹. In series [5], this molecule yielded a Kd of 28.3 µM.

B2: E6CT11, 11mer peptide representing the complete disordered C-terminus of HPV 51 E6 (Ac-QRTRQRNETQV) (peptide)
peptide: Ac-QRTRQRNETQV
notes: HPV 51 E6 residues 141 to 151; also called E6CT11 peptide
In series [4], B2 displayed a koff of 1.01 s⁻¹. For the same molecule, in series [5], binding was characterised by a dissociation constant (Kd) of 9.6 µM and the “fold change of the association rate against E6CT6” value was roughly 2 fold.

B3: second (C-terminal) zinc-binding domain of HPV 51 E6 (domain or fragment)
chain: GSHMSRSVYGTTLEAITKKSLYDLSIRCHRCQRPLGPEEKQKLVDEKKRFHEIAGRWTGQCANCWQRTRQRNETQV
modifications: 15N labelled in the titration with hDlgPDZ2; binds one zinc ion
notes: source: E. coli BL21 (DE3), FPLC-purified
Consider B3, for which the binding result in series [6] is listed as “binds”.

B4: 16 (co) E6FL: full-length HPV 16 E6, His6-tagged (protein, UniProt P03126 1-158, looked up)
chain: MHQKRTAMFQDPQERPRKLPQLCTELQTTIHDIILECVYCKQQLLRREVYDFAFRDLCIVYRDGNPYAVCDKCLKFYSKISEYRHYCYSLYGTTLEQQYNKPLCDLLIRCINCQKPLCPEEKQRHLDKKQRFHNIRGRWTGRCMSCCRSSRTRRETQL
modifications: full-length His6 tag
notes: full-length HPV 16 E6, His6-tagged
For the molecule B4, the “solubility of recombinant E6 construct” value in series [2] was “Insoluble”.

B5: HPV 16 E6: E6 oncoprotein of high-risk HPV 16 (protein, UniProt P03126 1-158, looked up)
Protein E6: B4 chain
In the case of B5, the “E6 dependent reduction of hDlg levels” value in the series with hDlg was “reduction of hDlg levels”. Moreover, the “interaction with hDlgPDZ2” value with hDlgPDZ2 [1] is listed as “interact with hDlgPDZ2”.

B6: 45 E6FL: full-length HPV 45 E6, His6-tagged (protein, UniProt P21735 1-158, looked up)
chain: MARFDDPKQRPYKLPDLCTELNTSLQDVSIACVYCKATLERTEVYQFAFKDLCIVYRDCIAYAACHKCIDFYSRIRELRYYSNSVYGETLEKITNTELYNLLIRCLRCQKPLNPAEKRRHLKDKRRFHSIAGQYRGQCNTCCDQARQERLRRRRETQV
modifications: full-length His6 tag
notes: full-length HPV 45 E6, His6-tagged
For the molecule B6, the “solubility of recombinant E6 construct” value in series [2] is “Insoluble”.
